Laboratory results reported in patent US20060003400A1, “Methods and compositions for characterizing a redox reagent system enzyme” (priority 2004, published 2006).

B1: wild-type s-GDH: soluble form of pyrroloquinoline quinone (PQQ)-dependent glucose dehydrogenase, naturally occurring (protein, UniProt P13650 25-478, looked up)
Quinoprotein glucose …: DVPLTPSQFAKAKSENFDKKVILSNLNKPHALLWGPDNQIWLTERATGKILRVNPESGSVKTVFQVPEIVNDADGQNGLLGFAFHPDFKNNPYIYISGTFKNPKSTDKELPNQTIIRRYTYNKSTDTLEKPVDLLAGLPSSKDHQSGRLVIGPDQKIYYTIGDQGRNQLAYLFLPNQAQHTPTQQELNGKDYHTYMGKVLRLNLDGSIPKDNPSFNGVVSHIYTLGHRNPQGLAFTPNGKLLQSEQGPNSDDEINLIVKGGNYGWPNVAGYKDDSGYAYANYSAAANKSIKDLAQNGVKVAAGVPVTKESEWTGKNFVPPLKTLYTVQDTYNYNDPTCGEMTYICWPTVAPSSAYVYKGGKKAITGWENTLLVPSLKRGVIFRIKLDPTYSTTYDDAVPMFKSNNRYRDVIASPDGNVLYVLTDTAGNVQKDDGSVTNTLENPGSLIKFTYKAK
B2: Asn452Thr: mutant form of s-GDH with one amino acid substitution, Asn452Thr (protein, UniProt P13650 25-478, looked up, variant N452T)
Quinoprotein glucose …: DVPLTPSQFAKAKSENFDKKVILSNLNKPHALLWGPDNQIWLTERATGKILRVNPESGSVKTVFQVPEIVNDADGQNGLLGFAFHPDFKNNPYIYISGTFKNPKSTDKELPNQTIIRRYTYNKSTDTLEKPVDLLAGLPSSKDHQSGRLVIGPDQKIYYTIGDQGRNQLAYLFLPNQAQHTPTQQELNGKDYHTYMGKVLRLNLDGSIPKDNPSFNGVVSHIYTLGHRNPQGLAFTPNGKLLQSEQGPNSDDEINLIVKGGNYGWPNVAGYKDDSGYAYANYSAAANKSIKDLAQNGVKVAAGVPVTKESEWTGKNFVPPLKTLYTVQDTYNYNDPTCGEMTYICWPTVAPSSAYVYKGGKKAITGWENTLLVPSLKRGVIFRIKLDPTYSTTYDDAVPMFKSNNRYRDVIASPDGNVLYVLTDTAGTVQKDDGSVTNTLENPGSLIKFTYKAK
B3: Asp167Glu: mutant form of s-GDH with one amino acid substitution, Asp167Glu (protein, UniProt P13650 25-478, looked up, variant D167E)
Quinoprotein glucose …: DVPLTPSQFAKAKSENFDKKVILSNLNKPHALLWGPDNQIWLTERATGKILRVNPESGSVKTVFQVPEIVNDADGQNGLLGFAFHPDFKNNPYIYISGTFKNPKSTDKELPNQTIIRRYTYNKSTDTLEKPVDLLAGLPSSKEHQSGRLVIGPDQKIYYTIGDQGRNQLAYLFLPNQAQHTPTQQELNGKDYHTYMGKVLRLNLDGSIPKDNPSFNGVVSHIYTLGHRNPQGLAFTPNGKLLQSEQGPNSDDEINLIVKGGNYGWPNVAGYKDDSGYAYANYSAAANKSIKDLAQNGVKVAAGVPVTKESEWTGKNFVPPLKTLYTVQDTYNYNDPTCGEMTYICWPTVAPSSAYVYKGGKKAITGWENTLLVPSLKRGVIFRIKLDPTYSTTYDDAVPMFKSNNRYRDVIASPDGNVLYVLTDTAGNVQKDDGSVTNTLENPGSLIKFTYKAK

Tests used:
Type in all cases: biochemical
[1] = Conventional wild type s-GDH-coated test strips dosed with plasma spiked with reducing sugars, chronoamperometry; conditions: plasma spiked with up to 40 mM of five reducing sugars; at less than about 10 mM; FIG. 5
Protocol: (§1) In order to develop an assay for screening mutant forms of s-GDH with varying sugar specificities, the response of wild type and mutant forms of s-GDH with reducing sugars first were tested in a conventional enzyme-coated glucose test strip format. The screening assay ideally mimics the response shown with conventionally enzyme-coated strips tested with whole blood or plasma spiked with a reducing sugar. The mutant forms of s-GDH tested contained one amino acid substitution each: Asn452Thr and Asp167Glu. The test strips were made by a web-based process in which the working electrode (gold) was slot coated with a buffered reagent solution containing approximately 50 to 500 kU/ml wild type or mutant s-GDH, PQQ at a 2 to 1 mole ratio of PQQ to GDH, 2 mM CaCl2, 750 mM ferricyanide, 67 mM citraconate at pH 6.8, 0.1% pluronics and 75 mM sucrose. […] In the assay, change in the absorbance of DCIP at 600 nm was monitored and the decreasing rate of absorbance was referred to as the reaction rate of the enzyme. […]
(§2) Plasma with about 80 mg/dL (or 4.4 mM) endogenous glucose was spiked with up to 40 mM each of five reducing sugars: glucose, maltose, xylose, galactose and lactose. The spiked samples were dosed onto the above test strips and glucose concentration was determined by chronoamperometry as above. […]

[2] = Conventional enzyme-coated test strips dosed with whole blood spiked with interfering sugar, chronoamperometry; conditions: whole blood about 80 mg/dL glucose spiked with about 4 mM or 12 mM xylose; FIG. 4
Protocol: In order to develop an assay for screening mutant forms of s-GDH with varying sugar specificities, the response of wild type and mutant forms of s-GDH with reducing sugars first were tested in a conventional enzyme-coated glucose test strip format. The screening assay ideally mimics the response shown with conventionally enzyme-coated strips tested with whole blood or plasma spiked with a reducing sugar. The mutant forms of s-GDH tested contained one amino acid substitution each: Asn452Thr and Asp167Glu. The test strips were made by a web-based process in which the working electrode (gold) was slot coated with a buffered reagent solution containing approximately 50 to 500 kU/ml wild type or mutant s-GDH, PQQ at a 2 to 1 mole ratio of PQQ to GDH, 2 mM CaCl2, 750 mM ferricyanide, 67 mM citraconate at pH 6.8, 0.1% pluronics and 75 mM sucrose. […] The activity of each enzyme was based on a spectrophotometric assay using DCIP (2,6-Dichlorophenolindophenol) and PES (Phenazine Ethosulfate) in 50 mM PIPES (Piperazine, N,N′bis-(2-ethanesulfonic acid)) buffer at pH 6.8. In the assay, change in the absorbance of DCIP at 600 nm was monitored and the decreasing rate of absorbance was referred to as the reaction rate of the enzyme. The enzyme activity by which […] of DCIP was reduced in one minute was defined as 1 Unit. The molar absorption coefficient of DCIP at pH 6.8 was 17.4 mM-1. A COBAS FARA II centrifugal analyzer was used for the spectrophotometric assay. […]
Whole blood at about 80 mg/dL (or 4.4 mM) of endogenous glucose was spiked with either a high therapeutic level (about 60 mg/dL or 4 mM) or three times a high therapeutic level (about 180 mg/dL or 12 mM) of the interfering sugar xylose. The spiked samples were dosed onto the above test strips and glucose concentration was determined by chronoamperometry in which a potential of −0.3 V was applied for 10 seconds, followed by applying a potential of +0.3 V for 5 seconds. Absolute bias to a control sample with no xylose was calculated for each enzyme and was expressed as a function of xylose concentration, as shown in FIG. 4.

[3] = Enzyme/sugar solution dosed onto enzyme-free electrochemical cell (process of the invention), current response; conditions: FIGS. 6-8; for Current response to xylose compared with glucose: xylose less than 10 mM, about 13 activity units per cell; for Current response to all reducing sugars tested: sugars up to about 40 mM
Protocol: The response of wild-type s-GDH to reducing sugars was measured using electrochemical cells (i.e., test strips) made by a web-based process in which the working electrode (gold) was slot coated with a buffered reagent solution containing 750 mM ferricyanide, 67 mM citraconate at pH 6.8, 0.1% pluronics and 75 mM sucrose. As in Example 1, an IR energy source was used to dry the reagent onto the working electrode. Electrochemical cells were formed by adhering the working electrode with dried reagent to a gold counter electrode containing dried MESA to prevent fouling of the counter electrode.
Wild-type s-GDH in 67 mM citraconate at pH 6.8 with PQQ at a 2 to 1 mole ratio of PQQ to GDH and 2 mM CaCl2 was mixed with physiologically relevant concentrations (up to about 40 mM or 720 mg/dL) of one of the following sugars: glucose, xylose, galactose, maltose, or lactose. The concentration of the wild type s-GDH in each solution was adjusted such that approximately 13 activity units per electrochemical cell were used. Each enzyme/sugar-containing solution was dosed onto an electrochemical cell containing dried ferricyanide, citraconate, Pluronics and sucrose but no enzyme (see above for concentrations). The current response was measured and the average of three determinations was graphed as a function of sugar concentration, as shown in FIG. 6.
The response of Asn452Thr to reducing sugars was measured using the same lot of electrochemical cells as described in Example 2 above (i.e., with cells containing dried ferricyanide, citraconate, Pluronics and sucrose but no enzyme). Asn452Thr was mixed with physiologically relevant concentrations (up to about 40 mM or 720 mg/dL) of one of the following sugars: glucose, xylose, galactose, maltose, or lactose. The concentration of Asn452Thr in each solution was adjusted such that approximately 13 activity units per electrochemical cell were used. Each enzyme/sugar-containing solution was dosed onto an electrochemical cell containing dried ferricyanide, citraconate, Pluronics and sucrose but no enzyme. […] Thus, the assay mimics the results obtained with Asn452Thr-coated strips with the advantages discussed above.
The response of Asp167Glu to reducing sugars was measured as described in Example 3 above. Asp167Glu was mixed with physiologically relevant concentrations (up to about 40 mM or 720 mg/dL) of one of the following sugars: glucose, xylose, galactose, maltose, or lactose; and dosed onto an electrochemical cell containing dried ferricyanide, citraconate, Pluronics and sucrose but no enzyme. […] Thus, again, the assay beneficially mimics the results obtained with Asp167Glu-coated strips but in a quick and easy-to-use format.

[4] = DCIP/PES spectrophotometric assay (enzyme-limiting conditions); conditions: same range of sugar concentrations; results not shown
Protocol: as §1, §2

Molecule | Current response as a function of sugar concentration [1] | Absolute bias to a control sample with no xylose as a function of xylose concentration [2] | Current response to xylose compared with glucose [3] | Reactivity with xylose and galactose [4] | Current response to all reducing sugars tested [3]
B1 | reacts equally well with each of the five reducing sugars tested | linear correlation | reacted equally well with glucose and xylose | low reactivity with xylose and galactose | –
B2 | – | linear correlation | reacts equally well with glucose and xylose | – | reacts equally well with all the sugars tested at less than 10 mM sugar
B3 | – | reduced response with xylose | reduced response to xylose | – | reacts equally well with all the other reducing sugars tested
